1 molecule from patent US20080262203A1 (published 2008) can be followed below.

Some results are limits rather than exact numbers.

Broadly, the Kd is a measure of binding affinity in units of concentration. The kon is the second-order rate constant of association. High values mean fast association, low ones slow association. The term koff denotes a measure of how fast the partners let go of each other. Read a high koff as fast dissociation.

Assay [1] has as its target T1, human Gro-beta (human, UniProt P19875 35-107).
T1 construct: also called Gro-β; hGROβ
Briefly: Biacore SPR, BE: mAb amine-coupled.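 Also: analytes IL-8, Gro-b and ENA-78 flowed at defined concentrations over the antibody surface, buffer injection used for double referencing, kinetics fitted to a 1:1 binding model.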
Description: (§1) For experiment designated BE, purified antibodies directly immobilized to the chip by amine coupling was used.
(§2) Defined concentrations of each analyte (IL8, Gro-band ENA-78) are passed over the immobilized or captured antibody surface, a separate capture event is used for each analyte injection. After each injection of analyte the surface is regenerated by injection
(§3) An injection of buffer is also injected over the antibody captured surface and this is used for double referencing. The data is analyzed using the analysis software inherent to the machine, using the 1:1 model of binding.

The target in assay [2] is T2, human ENA-78 (human, UniProt P42830 37-114, limits assumed).
T2 construct: also called hENA-78; CXCL5
Briefly: Biacore SPR, BE: mAb amine-coupled.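 Also: analytes IL-8, Gro-b and ENA-78 flowed at defined concentrations over the antibody surface, buffer injection used for double referencing, kinetics fitted to a 1:1 binding model.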
Description: as §1, §2, §3

Assay [3] has as its target T3, human IL-8 (human, UniProt P10145 28-99, limits assumed).
T3 construct: also called hIL-8; hIL8
Briefly: Biacore SPR, BE: mAb amine-coupled.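 Also: analytes IL-8, Gro-b and ENA-78 flowed at defined concentrations over the antibody surface, buffer injection used for double referencing, kinetics fitted to a 1:1 binding model.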
Description: as §1, §2, §3

Assay [4] has as its target T2, human ENA-78. Briefly: Biacore SPR, KL: anti-mouse Fc capture. (In general: Surface plasmon resonance follows binding to a sensor surface in real time, without labels.)
Description: (§4) Supernatant or purified antibody from parental mouse mAb is captured on the anti-mouse IgG-Fc surface. Defined concentrations of each analyte (IL8, Gro-band ENA-78) are passed over the immobilized or captured antibody surface, a separate capture event is used for each analyte injection. After each injection of analyte the surface is regenerated by injection
as §3
The target of assay [5] is T3, human IL-8. Briefly: Biacore SPR, KL: anti-mouse Fc capture.
Description: as §4, §3
The target in assay [6] is T1, human Gro-beta. Briefly: Biacore SPR, BE: mAb amine-coupled; BE: mAb amine-coupled.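 Also: analytes IL-8, Gro-b and ENA-78 flowed at defined concentrations over the antibody surface, buffer injection used for double referencing, kinetics fitted to a 1:1 binding model.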
Description: as §1, §2, §3
In assay [7] the target is T1, human Gro-beta. Put plainly: Biacore SPR, KL: anti-mouse Fc capture; KL: anti-mouse Fc capture.
Description: as §4, §3

B1: mouse monoclonal antibody 197.2 (antibody, IgG2a, V domains shown)
VH: EFQLQQSGPELVKPGASVKISCKASGYSFTDYNMNWVKQSNGKSLEWIGVINPKYGTTSYNQKFKGKATLTVDQSSNTAYMQLSSLTSEDSAVYHCARGMGLLFGMDYWGQGTSVTVSS
VL: DIVMTQSPSSLSVSAGEKVTMSCKSSQSLLNSGNQKNYLAWYQQKPGQPPKLLIYGASTRKSGVPDRFTGSGSGTDFTLTISSVQAEDLAVYYCQNDHSFPCTFGGGTKLEIKR
notes: Murine hybridoma mAb
Consider B1, for which the Kd with human Gro-beta [1] was less than 9.62 pM; with human ENA-78 [2] it was 10.1 nM; with human IL-8 [3], 0.69 nM; in the assay with human ENA-78 [4], 9 nM; with human IL-8 [5], 5.89 nM; in the assay with human Gro-beta [7], 0.639 nM. The on-rate (kon) amounted to 1.04e+06 M⁻¹ s⁻¹ with human Gro-beta [1]; 301000 M⁻¹ s⁻¹ with human ENA-78 [2]; 723000 M⁻¹ s⁻¹ in the assay with human IL-8 [3]; 299000 M⁻¹ s⁻¹ in the assay with human ENA-78 [4]; 627000 M⁻¹ s⁻¹ with human IL-8 [5]; 1.55e+06 M⁻¹ s⁻¹ with human Gro-beta [7]. In addition, the koff with human ENA-78 [2] was 0.00302 s⁻¹; in the assay with human IL-8 [3] it was 0.000499 s⁻¹; with human ENA-78 [4], 0.00269 s⁻¹; with human IL-8 [5], 0.00369 s⁻¹; with human Gro-beta [6], less than 1e-05 s⁻¹; in the assay with human Gro-beta [7] it was 0.000993 s⁻¹.
